Several values for one entry are separate records, joined by “and”; a condition that tells them apart may be missing. Equal entries are not always repeated.
Target: full length human histone 3 lysine 4 demethylase KDM5B, His6 tag cleaved (human) (UniProt Q9UGL1)
Assay: SPR; KDM5B immobilised by amine coupling (490 RU and 975 RU); NCPs injected in eight concentrations (two-fold dilutions from 250 nM); 15 °C; 20 mM Hepes, 300 mM NaCl, 1 mM EDTA, 0.005% Tween 20, 1 mM DTT; steady state, 1:1 model; apparent

Chain of UniProt Q9UGL1 (Q9UGL1 whole entry): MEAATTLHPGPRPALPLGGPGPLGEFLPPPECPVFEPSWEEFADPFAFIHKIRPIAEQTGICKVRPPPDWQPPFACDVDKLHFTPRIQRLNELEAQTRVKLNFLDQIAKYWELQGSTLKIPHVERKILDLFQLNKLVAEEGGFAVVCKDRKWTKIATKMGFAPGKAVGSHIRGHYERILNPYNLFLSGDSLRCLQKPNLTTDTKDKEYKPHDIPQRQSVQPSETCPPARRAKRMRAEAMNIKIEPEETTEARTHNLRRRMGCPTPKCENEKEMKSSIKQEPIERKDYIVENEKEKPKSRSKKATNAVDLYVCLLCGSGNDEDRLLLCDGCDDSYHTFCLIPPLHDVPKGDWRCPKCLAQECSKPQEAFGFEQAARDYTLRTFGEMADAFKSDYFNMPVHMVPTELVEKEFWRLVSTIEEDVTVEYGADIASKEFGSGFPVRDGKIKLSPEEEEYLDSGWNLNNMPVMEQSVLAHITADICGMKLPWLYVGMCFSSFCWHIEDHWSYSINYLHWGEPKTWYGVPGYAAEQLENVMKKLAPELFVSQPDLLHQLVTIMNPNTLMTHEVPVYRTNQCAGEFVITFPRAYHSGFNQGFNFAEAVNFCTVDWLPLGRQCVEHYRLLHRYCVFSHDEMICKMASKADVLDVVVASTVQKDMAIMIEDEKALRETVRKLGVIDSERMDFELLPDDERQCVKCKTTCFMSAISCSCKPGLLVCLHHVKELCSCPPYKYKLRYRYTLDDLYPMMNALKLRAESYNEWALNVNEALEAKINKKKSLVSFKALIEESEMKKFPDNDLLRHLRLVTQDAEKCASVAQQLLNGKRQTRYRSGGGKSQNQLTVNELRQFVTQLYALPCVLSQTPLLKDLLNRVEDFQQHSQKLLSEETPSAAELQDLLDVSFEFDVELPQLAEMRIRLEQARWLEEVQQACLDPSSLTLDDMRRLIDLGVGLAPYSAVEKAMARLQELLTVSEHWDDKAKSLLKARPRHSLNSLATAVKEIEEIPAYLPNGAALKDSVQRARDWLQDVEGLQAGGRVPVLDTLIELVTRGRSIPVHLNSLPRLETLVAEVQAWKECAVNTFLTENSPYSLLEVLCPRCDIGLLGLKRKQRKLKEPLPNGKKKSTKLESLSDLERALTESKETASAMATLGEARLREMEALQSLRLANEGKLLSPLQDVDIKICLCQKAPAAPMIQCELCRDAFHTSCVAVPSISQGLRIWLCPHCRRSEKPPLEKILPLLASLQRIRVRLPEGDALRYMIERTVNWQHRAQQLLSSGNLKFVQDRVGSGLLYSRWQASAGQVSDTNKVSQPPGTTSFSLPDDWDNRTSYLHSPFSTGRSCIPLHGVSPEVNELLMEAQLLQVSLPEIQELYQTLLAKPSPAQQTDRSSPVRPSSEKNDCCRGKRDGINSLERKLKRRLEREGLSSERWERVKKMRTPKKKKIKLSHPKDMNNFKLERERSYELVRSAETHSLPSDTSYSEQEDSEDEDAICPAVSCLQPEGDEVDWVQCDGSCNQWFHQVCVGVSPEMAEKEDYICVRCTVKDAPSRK

Kd: 20.3 nM and 27.7 nM
Substance: Nucleosome core particles (NCPs), recombinant Xenopus laevis histone octamer on the Widom 601 DNA (complex)

Reference: paper PMC6411775
